Entries after “also recorded” stand apart in the source; their conditions may differ.

In one assay the test system is H5N1 NIBRG-14. Description: microbe, parasite or virus in culture. The format is cell-based, H5N1 influenza virus in MDCK cells.
The test system of a further assay is H5N1 NIBRG-23. Description: microbe, parasite or virus in culture. The format is cell-based, H5N1 influenza virus in MDCK cells. The following applies: Influenza A virus, H5N1, read-out: NIBRG-23, plaque size reduction.
The target in assay [1] is N1rec, tetrameric recombinant N1 Neuraminidase (Influenza A virus, UniProt Q30CC2). In words: biochemical. More on the design: species or system H5N1 A/crested eagle/Belgium/09/2004.
For another assay, the system named is NIBRG-14ma virus. Details: species or system BALB/c mice. The following applies: mouse, in vivo.
For assay [2], the target named is N1rec, tetrameric recombinant N1 Neuraminidase (soluble recombinant H5N1 NA derived from A/crested e (influenza A virus A/crested eagle/Belgium/01/2004 (H5N1))). In words: SPR, immobilized N1rec. A general note: SPR reads the build-up and loss of mass on a sensor chip optically.
Assay [3] has the same target. Description: SPR (Biacore 3000), N1rec immobilized on CM5 chip, VHHm injected.
For assay [4] the target is unchanged. Description: cell-based or functional assay.
The next assay has as its system N1rec. The format is binding, H5N1 A/crested eagle/Belgium/09/2004.

Turning to `CCOC(=O)C1=C[C@@H](OC(CC)CC)[C@H](NC(C)=O)[C@@H](N)C1` [Oseltamivir], the IC50 is 15000 nM in the assay on H5N1 NIBRG-14 (Influenza A virus, H5N1, read-out: NIBRG-14, plaque size reduction); 73000 nM with H5N1 NIBRG-23; 586 nM in assay [1]. Also, in the assay on NIBRG-14ma virus, the “morbidity (body weight)” value is given as “significant body weight loss”. Further, the “protection against lethality” value with NIBRG-14ma virus was “protected the mice against lethality; also recorded: full protection”. Also, in the assay on NIBRG-14ma virus, the “viral RNA in lung homogenates (RT-qPCR Ct)” value is “only slightly different”. The molecule also showed a survival with NIBRG-14ma virus (po, 1 mg/kg/day) of 100%.

B1: N1-7-VHHm (VHH)
VHH: QVQLQESGGGLVQPGGSLRLSCAASGSRFSRYDMGWYRQAPGKQRELVATITSGGITNYADSVKGRFTISRDNTKNTVYLQMNSLKPEDTAVYYCNAEDPLRAIQLGSLTYEYWGQGTQVTVSS
A word on the koff: it is the rate constant with which the complex falls apart. In general, kon refers to a measure of how fast the partners come together. In the case of B1, in assay [2], the fold lower affinity (KD) than N1-3-VHHm turned out to be 100 fold and the fold lower affinity (KD) than N1-5-VHHm turned out to be 10 fold. Further, in assay [3], the Kd amounted to 63 nM, the koff stood at 0.0028 s⁻¹ and the kon amounted to 44000 M⁻¹ s⁻¹.

B2: N1-3-VHHm (VHH)
VHH: QVQLQESGGGLVQPGGSLRLSCAASGSIFSIHDMGWYRRAPGKQRELVAAITSGGSTNYADSVKGRFTISRDNAKNTVSLQMNSLKPEDTAVYYCNAWGEDYGLGEYDSWGQGTQVTVSS
For B2, in assay [4], the IC50 of inhibition of the catalytic N1 NA activity (MUNANA, 160 ng N1rec) is 425 nM. Also, in assay [3], the Kd came to 0.37 nM, the off-rate (koff) was found to be 0.0013 s⁻¹ and the kon was 3.6e+06 M⁻¹ s⁻¹.

B3: N1-5-VHHm (VHH)
VHH: QVQLQESGGGLVQPGGSLRLSCAASGSDISIYEMGWYRQAPGKQRELVAAITSGGTTNYADSVKGRFTISRDNAKNTVYLQMNSLKPEDTAVYYCNAADFDLWEYDYWGQGTQVTVSS
As for B3, the IC50 of inhibition of the catalytic N1 NA activity (MUNANA, 160 ng N1rec) in assay [4] was determined as 375 nM. In assay [3], the Kd was 4.7 nM, the koff came to 0.00058 s⁻¹ and the on-rate constant (kon) is 120000 M⁻¹ s⁻¹.

B4: N1-7-VHHm: binding but non-inhibitory N1-VHHm control (protein)
VHH: QVQLQESGGGLVQPGGSLRLSCAASGSRFSRYDMGWYRQAPGKQRELVATITSGGITNYADSVKGRFTISRDNTKNTVYLQMNSLKPEDTAVYYCNAEDPLRAIQLGSLTYEYWGQGTQVTVSSHHHHHH
B4: the “size and number of NIBRG-14 plaques” value in the assay on H5N1 NIBRG-14 is “did not affect the size or number”. Also, in the assay with N1rec, the Koff worked out at 2.8E^−3 s^−1; the Kon is given as 4.4E^+4 M^−1 · s^−1; the “binding to N1rec after prior binding of another N1-VHHm” value is given as “not affected”; the “fold lower affinity KD than N1-5-VHHm and N1-3-VHHm, respectively” value is on record as 10- to 100 fold. In addition, the Kd at N1rec (read-out: KKD) was 63 nM.

The record behind these values is patent publication US10023629B2 (priority 2012, dated 2018).
